Results reported in paper PMC9458429.

What was measured:
Test in all cases: filter binding
[1] = test system: 40S ribosomal subunit ((HeLa cells)); conditions: Filter binding: 50 nM 32P-RNA in TAKM5 buffer (composition not given), 15 min at 37 C, nitrocellulose filtration; fluorescence titrations: pyrene, ex 341 nm …
[2] = test system: 30S ribosomal subunit (Escherichia coli MRE600); conditions: Filter binding: 50 nM 32P-RNA in TAKM5 buffer (composition not given), 15 min at 37 C, nitrocellulose filtration, fluorescence titrations: pyrene, ex 341 nm …
[3] = test system: 70S ribosome (Escherichia coli MRE600); conditions: Filter binding: 50 nM 32P-RNA in TAKM5 buffer (composition not given), 15 min at 37 C, nitrocellulose filtration, fluorescence titrations: pyrene, ex 341 nm …

Sequence	Kd [2] [nM]	Kd [3] [nM]	further results
AAAGCAAAAAUGUGAUCUUGCUUGUAAAUACAAUUUUGAGAGGUUAAUAAAUUACAAGUAGUGCUAUUUUUGUAUUUAGGUUAGCUAUUUAGCUUUACGUUCCAGGAUGCCUAGUGGCAGCCCCACAAUAUCCAGGAAGCCCUCUCUGCGGUUUUUCAGAUUAGGUAGUCGAAAAACCUAAGAAAUUUACCUGCUACAUUUCAAGAUAAA [CrPV IGR IRES WT]	110	69	Kd [1]: 14 nM
AAAGCAAAAAUGUGAUCUUGCUUGUAAAUACAAUUUUGAGAGGUUAAUAAAUUACAAGUAGUGCUAUUUUUGUAUUUAGGUUAGCUAUUUAGCUUUACGUUCCAGGAUGCCUAGUGGCAGCCCCACAAUAUCCAGGAAGCCCUCUCUGCGGUUUUUCAGAUUAGGUAGUCGAAAAACCUAAGAAAUUUAGGUGCUACAUUUCAAGAUAAA [CrPV IGR IRES PK1_K/O]	55	92	Kd [1]: 4 nM
AAAGCAAAAAUGUGAUCUUGCUUGUAAAUACAAUUUUGAGAGGUUAAUAAAUUACAAGUAGUGCUAUUUUUGUAUUUAGGUUAGCUAUUUAGCUUUACGUUCCAGGAUGCCUAGUGGCAGCCCCACAAUAUCCAGGAAGCGGAGAGUGCGGUUUUUCAGAUUAGGUAGUCGAAAAACCUAAGAAAUUUACCUGCUACAUUUCAAGAUAAA [CrPV IGR IRES PK2_K/O]	74	100	
AAAGCAAAAAUGUGAUCUUGCUUGUAAAUACAAUUUUGAGAGGUUAAUAAAUUACAAGUAGUGCUAUUUUUGUAUUUAGGUUAGCUAUUUAGCUUUACGUUCCAGGAUGCCUAGUGGCAGCCCGUGAAUAUCCAGGAAGCCCUCUCUGCGGUUUUUCAGAUUAGGUAGUCGAAAAACCUAAGAAAUUUACCUGCUACAUUUCAAGAUAAA [CrPV IGR IRES PK3_K/O]	48	90	
AAAGCAAAAAUGUGAUCUUGCUUGUAAAUACAAUUUUGAGAGGUUAAUAAAUUACAAGUAGUGCUAUUUUUGUAUUUAGGUUAGCUAUUUAGCUUUACGUUCCAGGAUGCCUAGUGGCAGCCGGUGAAUAUCCAGGAAGCCCUCUCUGCGGUUUUUCAGAUUAGGUAGUCGAAAAACCUAAGAAAUUUAGGUGCUACAUUUCAAGAUAAA [CrPV IGR IRES PK1+3_K/O]	52	78	
AAAGCAAAAAUGUGAUCUUGCUUGUAAAUACAAUUUUGAGAGGUUAAUAAAUUACAAGUAGUGCUAUUUUUGUAUUUAGGUUAGCUAUUUAGCUUUACGUUCCAGGAUGCCUAGUGGCAGCCGGUGAAUAUCCAGGAAGCGGAGAGUGCGGUUUUUCAGAUUAGGUAGUCGAAAAACCUAAGAAAUUUAGGUGCUACAUUUCAAGAUAAA [CrPV IGR IRES PK1+2+3_K/O]	48	79	
GAGCGGUUUCUGGAAUACUAUAUGUAAGUAUAGUGUUCUGGAGGCAUCAUUCUAUGGUUACCCAUCAUUAGAGGAAAUUUCCAAUAAACUCUGGUGUAAGGCUUAGAGUGAUGGUCGAGGUGCCCUAUUUAGGGUGAGGAGCCUCGGUGGCAGCCCCACCAAAUCCUCUAUUGGAUAGGAACAGCUGUACUGGGCAGUUACAGCAGUCGUAUGGUAACACAUGCGGCGUUCCGAAAUACCAUGCCUGGCGAUUCACAACAAGAA [IAPV IGR IRES WT]	93	50	
GAGCGGUUUCUGGAAUACUAUAUGUAAGUAUAGUGUUCUGGAGGCAUCAUUCUAUGGUUACCCAUCAUUAGAGGAAAUUUCCAAUAAACUCUGGUGUAAGGCUUAGAGUGAUGGUCGAGGUGCCCUAUUUAGGGUGAGGAGCCUCGGUGGCAGCCCCACCAAAUCCUCUAUUGGAUAGGAACAGCUGUACUGGGCAGUUACAGCAGUCGUAUGGUAACACAUGCGGCGUUCCGAAAUACCAUGGGUGGCGAUUCACAACAAGAA [IAPV IGR IRES PK1_K/O]	87	67	
GAGCGGUUUCUGGAAUACUAUAUGUAAGUAUAGUGUUCUGGAGGCAUCAUUCUAUGGUUACCCAUCAUUAGAGGAAAUUUCCAAUAAACUCUGGUGUAAGGCUUAGAGUGAUGGUCGAGGUGCCCUAUUUAGGGUGAGGAGCCUCGGUGGCAGCCCCACCAAAUCCUCUUAACCAUAGGAACAGCUGUACUGGGCAGUUACAGCAGUCGUAUGGUAACACAUGCGGCGUUCCGAAAUACCAUGCCUGGCGAUUCACAACAAGAA [IAPV IGR IRES PK2_K/O]	81	59	
GAGCGGUUUCUGGAAUACUAUAUGUAAGUAUAGUGUUCUGGAGGCAUCAUUCUAUGGUUACCCAUCAUUAGAGGAAAUUUCCAAUAAACUCUGGUGUAAGGCUUAGAGUGAUGGUCGAGGUGCCCUAUUUAGGGUGAGGAGCCUCGGUGGCAGCCCCUGGAAAUCCUCUAUUGGAUAGGAACAGCUGUACUGGGCAGUUACAGCAGUCGUAUGGUAACACAUGCGGCGUUCCGAAAUACCAUGCCUGGCGAUUCACAACAAGAA [IAPV IGR IRES PK3_K/O]	103	59	
GAGCGGUUUCUGGAAUACUAUAUGUAAGUAUAGUGUUCUGGAGGCAUCAUUCUAUGGUUACCCAUCAUUAGAGGAAAUUUCCAAUAAACUCUGGUGUAAGGCUUAGAGUGAUGGUCGAGGUGCCCUAUUUAGGGUGAGGAGCCUCGGUGGCAGCCCCUGGAAAUCCUCUAUUGGAUAGGAACAGCUGUACUGGGCAGUUACAGCAGUCGUAUGGUAACACAUGCGGCGUUCCGAAAUACCAUGGGUGGCGAUUCACAACAAGAA [IAPV IGR IRES PK1+3_K/O]	80	65	
GAGCGGUUUCUGGAAUACUAUAUGUAAGUAUAGUGUUCUGGAGGCAUCAUUCUAUGGUUACCCAUCAUUAGAGGAAAUUUCCAAUAAACUCUGGUGUAAGGCUUAGAGUGAUGGUCGAGGUGCCCUAUUUAGGGUGAGGAGCCUCGGUGGCAGCCCCUGGAAAUCCUCUUAACCAUAGGAACAGCUGUACUGGGCAGUUACAGCAGUCGUAUGGUAACACAUGCGGCGUUCCGAAAUACCAUGGGUGGCGAUUCACAACAAGAA [IAPV IGR IRES PK1+2+3_K/O]	73	72	
GCGCGGAUGCUCAGUCGGUAGAGCAGGGGAUUGAAAAUCCCCGUGUCCUUGGUUCGAUUCCGAGUCCGCGCACCA [tRNAPhe]			Kd ([2]; only 10% bound): 35 nM
GGAUACGCACAAUAAGGCUAUUGUACGUAUGCAAAUUAAUAAUAAAGGAGAGUAGCAAUGUCAUUCGAAUUACCUGCACUACCAUAUGCUAAAGAUGCUCUGGCACCGCACAUUUCUGCGG [sodB 5' UTR RNA]			Kd ([2]; 41% bound): 13 nM; Kd ([3]; 56% bound): 47 nM
GGUACGAGUAGAAUACUGCCGCUUAACGUCGCGUAAAUUGUUUAACACUUUGCGUAACGUACACUGGGAUCGCUGAAUUAGAGAUCGGCGUCCUUUCAUUCUAUAUACUUUGGAGUUUUAAAAUGUCUCAAGUACUGAAGCAACAGCUAAAAUCGUUUCUGAGUUUGGUCGUGACGCAAACGACACC [rpsO 5' UTR RNA]			Kd ([2]; 39% bound): 10 nM; Kd ([3]; 44% bound): 94 nM
